# Measured values published in IntAct's records for PubMed 27462807.
# B1: TP53-binding protein 1 (Homo sapiens), Q12888 (parent)
# chain: MDPTGSQLDSDFSQQDTPCLIIEDSQPESQVLEDDSGSHFSMLSRHLPNLQTHKENPVLDVVSNPEQTAGEERGDGNSGFNEHLKENKVADPVDSSNLDTCGSISQVIEQLPQPNRTSSVLGMSVESAPAVEEEKGEELEQKEKEKEEDTSGNTTHSLGAEDTASSQLGFGVLELSQSQDVEENTVPYEVDKEQLQSVTTNSGYTRLSDVDANTAIKHEEQSNEDIPIAEQSSKDIPVTAQPSKDVHVVKEQNPPPARSEDMPFSPKASVAAMEAKEQLSAQELMESGLQIQKSPEPEVLSTQEDLFDQSNKTVSSDGCSTPSREEGGCSLASTPATTLHLLQLSGQRSLVQDSLSTNSSDLVAPSPDAFRSTPFIVPSSPTEQEGRQDKPMDTSVLSEEGGEPFQKKLQSGEPVELENPPLLPESTVSPQASTPISQSTPVFPPGSLPIPSQPQFSHDIFIPSPSLEEQSNDGKKDGDMHSSSLTVECSKTSEIEPKNSPEDLGLSLTGDSCKLMLSTSEYSQSPKMESLSSHRIDEDGENTQIEDTEPMSPVLNSKFVPAENDSILMNPAQDGEVQLSQNDDKTKGDDTDTRDDISILATGCKGREETVAEDVCIDLTCDSGSQAVPSPATRSEALSSVLDQEEAMEIKEHHPEEGSSGSEVEEIPETPCESQGEELKEENMESVPLHLSLTETQSQGLCLQKEMPKKECSEAMEVETSVISIDSPQKLAILDQELEHKEQEAWEEATSEDSSVVIVDVKEPSPRVDVSCEPLEGVEKCSDSQSWEDIAPEIEPCAENRLDTKEEKSVEYEGDLKSGTAETEPVEQDSSQPSLPLVRADDPLRLDQELQQPQTQEKTSNSLTEDSKMANAKQLSSDAEAQKLGKPSAHASQSFCESSSETPFHFTLPKEGDIIPPLTGATPPLIGHLKLEPKRHSTPIGISNYPESTIATSDVMSESMVETHDPILGSGKGDSGAAPDVDDKLCLRMKLVSPETEASEESLQFNLEKPATGERKNGSTAVAESVASPQKTMSVLSCICEARQENEARSEDPPTTPIRGNLLHFPSSQGEEEKEKLEGDHTIRQSQQPMKPISPVKDPVSPASQKMVIQGPSSPQGEAMVTDVLEDQKEGRSTNKENPSKALIERPSQNNIGIQTMECSLRVPETVSAATQTIKNVCEQGTSTVDQNFGKQDATVQTERGSGEKPVSAPGDDTESLHSQGEEEFDMPQPPHGHVLHRHMRTIREVRTLVTRVITDVYYVDGTEVERKVTEETEEPIVECQECETEVSPSQTGGSSGDLGDISSFSSKASSLHRTSSGTSLSAMHSSGSSGKGAGPLRGKTSGTEPADFALPSSRGGPGKLSPRKGVSQTGTPVCEEDGDAGLGIRQGGKAPVTPRGRGRRGRPPSRTTGTRETAVPGPLGIEDISPNLSPDDKSFSRVVPRVPDSTRRTDVGAGALRRSDSPEIPFQAAAGPSDGLDASSPGNSFVGLRVVAKWSSNGYFYSGKITRDVGAGKYKLLFDDGYECDVLGKDILLCDPIPLDTEVTALSEDEYFSAGVVKGHRKESGELYYSIEKEGQRKWYKRMAVILSLEQGNRLREQYGLGPYEAVTPLTKAADISLDNLVEGKRKRRSNVSSPATPTASSSSSTTPTRKITESPRASMGVLSGKRKLITSEEERSPAKRGRKSATVKPGAVGAGEFVSPCESGDNTGEPSALEEQRGPLPLNKTLFLGYAFLLTMATTSDKLASRSKLPDGPTGSSEEEEEFLEIPPFNKQYTESQLRAGAGYILEDFNEAQCNTAYQCLLIADQHCRTRKYFLCLASGIPCVSHVWVHDSCHANQLQNYRNYLLPAGYSLEEQRILDWQPRENPFQNLKVLLVSDQQQNFLELWSEILMTGGAASVKQHHSSAHNKDIALGVFDVVVTDPSCPASVLKCAEALQLPVVSQEWVIQCLIVGERIGFKQHPKYKHDYVSH
# Variants of: B1
# Details: with H2BC10, P62807
row,Variant,effect of a mutation on the interaction
1,T1609C,with no effect

# Variants of: B1
# Details: with H2BC10, P62807
# Remark: another data set of the same source
row,Variant,effect of a mutation on the interaction
1,K1628C,decreasing interaction
